Measured values as given in publication PMC9273042 (Science Immunology, 2022).

Tests used:
Details in all cases: both partners purified
SARS-CoV-2 S 6P trimer = SARS-CoV-2 S 6P trimer (SARS-CoV-2, Wuhan-Hu-1/WA1 type, S-6P, stabilised); test: cryo-EM structure
[1] = biological target: soluble RBD (WA1/2020 variant) (SARS-CoV-2, WA1/2020, UniProt P0DTC2); test: SPR
[2] = biological target: Trimer Spike (soluble, WA1/2020 variant) (SARS-CoV-2, WA1/2020, UniProt P0DTC2); test: SPR
[3] = biological target: T1, RBD, REF variant (Wuhan-1) (SARS-CoV-2, UniProt P0DTC2); test: ELISA
T1 construct: source: bought: SinoBio

RBD, UK variant (Alpha) = biological target: T2, RBD, UK variant (Alpha) (SARS-CoV-2, UniProt P0DTC2); test: ELISA
T2 construct: source: bought: SinoBio

RBD, SA variant (Beta) = biological target: T3, RBD, SA variant (Beta) (SARS-CoV-2, UniProt P0DTC2); test: ELISA
T3 construct: source: bought: SinoBio

| Binder | stoichiometry N (SARS-CoV-2 S 6P trimer) | Kd [1] [nM] | koff [1] [s⁻¹] | kon [1] [M⁻¹ s⁻¹] | Kd [2] [nM] | koff [2] [s⁻¹] | kon [2] [M⁻¹ s⁻¹] | percent inhibition of ACE2 binding [3] [%] | percent inhibition of ACE2 binding (RBD, UK variant (Alpha)) [%] | percent inhibition of ACE2 binding (RBD, SA variant (Beta)) [%] |
| --- | --- | --- | --- | --- | --- | --- | --- | --- | --- | --- |
| IMM20184 Fab (Fab, V domains shown, Fab of m1) VH: EVQLVESGGGLVQPGGSLRLSCSASGFTFSSFWMSWVRQAPGKGLEWVATIREDGSEKYYVDSVKGRFSISRDNAKNSLYLQMNSLRAEDTAVYYCARSKWLRGSFDYWGQGTLVTVSS VL: NFMLTQPHSVSESPGKTVTISCTRRSGSIASNYVQWYQQRPGSAPTTVIYEDNQRPSGVPDRFSGSIDSSSNSASLTISGLQTEDEADYYCQSYDSSNPPGASWVFGGGTKLTVL | 3 Fab:Trimer |  |  |  |  |  |  |  |  |  |
| IMM20184 (antibody, V domains shown) VH: EVQLVESGGGLVQPGGSLRLSCSASGFTFSSFWMSWVRQAPGKGLEWVATIREDGSEKYYVDSVKGRFSISRDNAKNSLYLQMNSLRAEDTAVYYCARSKWLRGSFDYWGQGTLVTVSS VL: NFMLTQPHSVSESPGKTVTISCTRRSGSIASNYVQWYQQRPGSAPTTVIYEDNQRPSGVPDRFSGSIDSSSNSASLTISGLQTEDEADYYCQSYDSSNPPGASWVFGGGTKLTVL |  | 2.2 | 0.00131 | 595000 | 7.35 | 0.000229 | 31200 |  |  |  |
| IMM20253 (antibody, V domains shown) VH: QVQLVESGGGVVQPGRSLRLSCTASGFTFSTYGMHWVRQAPGKGLEWVAVISYDGSSKHYAESVKGRFTISRDNSNNTLYLQMNRLRAEDTAVYYCARDGQPPGWGNYFDYWGQGTLVTVAS VL: SYVLTQPPSVSVAPGKTARITCGGNGIGSKSVYWYQQKPGQAPEVVVYDDSDRPSGIPERFSGSNSGNTATLTISRVEAGDEADYYCQVWDSSSDPWVFGGGTKLTVL |  | 0.157 | 0.000218 | 1.39e+06 | 1.44 | 0.000117 | 81300 | ≤ 40 | ≤ 40 | ≤ 40 |
| IMM20253 Fab (Fab, V domains shown, Fab of m3) VH: QVQLVESGGGVVQPGRSLRLSCTASGFTFSTYGMHWVRQAPGKGLEWVAVISYDGSSKHYAESVKGRFTISRDNSNNTLYLQMNRLRAEDTAVYYCARDGQPPGWGNYFDYWGQGTLVTVAS VL: SYVLTQPPSVSVAPGKTARITCGGNGIGSKSVYWYQQKPGQAPEVVVYDDSDRPSGIPERFSGSNSGNTATLTISRVEAGDEADYYCQVWDSSSDPWVFGGGTKLTVL | 1 Fab:Trimer |  |  |  |  |  |  |  |  |  |
| IMM20190 (antibody, V domains shown) VH: EVQLVESGGGLVQPGGSLRLSCSASGFTVSSNYMSWVRQAPRKGLEWVSVIYAGGSTFYADSVKGRFTISRDNSKNTLLLQMNSLRAEDTAVYYCARDRGGYLDYWGQGTLVTVSS VL: DIQMTQSPSSLSASVGDRVTITCRASQGISNYLAWYQQKPGKVPKLLIYAASTLQSGVPSRFSGSGSGTDFTLTISSLQPEDVATYYCQKYNSAPGLTFGGGTKVEIK |  | 1.87 | 0.000376 | 202000 | 6.59 | 0.000195 | 29500 |  |  |  |
| IMM20190 Fab (Fab, V domains shown, Fab of m2) VH: EVQLVESGGGLVQPGGSLRLSCSASGFTVSSNYMSWVRQAPRKGLEWVSVIYAGGSTFYADSVKGRFTISRDNSKNTLLLQMNSLRAEDTAVYYCARDRGGYLDYWGQGTLVTVSS VL: DIQMTQSPSSLSASVGDRVTITCRASQGISNYLAWYQQKPGKVPKLLIYAASTLQSGVPSRFSGSGSGTDFTLTISSLQPEDVATYYCQKYNSAPGLTFGGGTKVEIK | 3 Fab:Trimer |  |  |  |  |  |  |  |  |  |
